According to US20030148389A1 (SERONO GENETICS INSTITUTE S A, published 2003):

Target: T1, PAPAP protein (human)
T1 construct: Identified by expression cloning; COS-1 cells transfected with the cDNA clone were stained by the AP fusion probe; also called PAPAP polypeptide; PAPAP gene product
Assay: in situ receptor binding assay: AP staining of COS-1 cells transfected with human brain cDNA pools, incubated with PAP-AP fusion medium
Description: Plasmid DNA was obtained from pools of ˜1000 colonies using the QiaPrep Spin Miniprep kit (Qiagen). These pools of DNA were then transiently transfected into COS-1 cells as follows. Two micrograms of DNA from each pool of human brain cDNAs was diluted into 200 ul of serum-free medium (DMEM medium from Gibco-BRL with no additives). The DNA was complexed to the PLUS reagent by adding 12 ul of (mixed prior to use) PLUS reagent to the DNA in serum-free medium. 200 ul of the DNA-PLUS-Lipofectamine reagent complexes was added to wells containing Cos-1 cells plated at 0.25×10⁵ cells per well in 6 well dishes (35 mm) the day prior to transfection (in complete medium containing no antibiotics). Previous to the addition of the DNA/lipofectamine/PLUS complex, the complete medium was removed from the cells and replaced with 800 ul serum-free medium. Cells were incubated at 37 degrees C. at 5% CO₂ for 3 hours; then the medium in each well was replaced with 2 ml of complete medium.
Two days after transfection, cell staining was begun. Culture medium was removed from cells in the 6 well dishes. […]

T1 sequence (chain, as listed by the source limits assumed): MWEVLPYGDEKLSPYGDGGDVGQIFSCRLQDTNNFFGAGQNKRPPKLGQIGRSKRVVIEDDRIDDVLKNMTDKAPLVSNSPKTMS

- binding result: binds
B1: g34872 peptide-alkaline phosphatase fusion protein (other)
chain: DAAQPARRARRTYEAYQPLERMWTCNYNQQKDQSCNHKEITSTKAERRSSGIIPVEEENPDFWNREAAEALGAAKKLQPAQTAAKNLIIFLGDGMGVSTVTAARILKGQKKDKLGPEIPLAMDRFPYVALSKTYNVDKHVPDSGATATAYLCGVKGNFQTIGLSAAARFNQCNTTRGNEVISVMNRAKKAGKSVGVVTTTRVQHASPAGTYAHTVNRNWYSDADVPASARQEGCQDIATQLISNMDIDVILGGGRKYMFPMGTPDPEYPDDYSQGGTRLDGKNLVQEWLAKRQGARYVWNRTELMQASLDPSVTHLMGLFEPGDMKYEIHRDSTLDPSLMEMTEAALRLLSRNPRGFFLFVEGGRIDHGHHESRAYRALTETIMFDDAIERAGQLTSEEDTLSLVTADHSHVFSFGGYPLRGSSIFGLAPGKARDRKAYTVLLYGNGPGYVLKDGARPDVTESESGSPEYRQQSAVPLDEETHAGEDVAVFARGPQAHLVHGVQEQTFIAHVMAFAACLEPYTACDLAPPAGTTDAAHPGYLEEALSLEGPEQKLISEEDLNSAVDHHHHHH
notes: Used as conditioned medium from stably transfected 293T cells; The vector has a secretion signal upstream of the insert; also called PAP-AP fusion protein; AP fusion protein
